What was measured:
[1] = target: Cy5 N-terminal-labeled WWP2 (human) (UniProt O00308); assay: MST; 10 nM N-terminal Cy5-labeled WWP2, NDP52 (up to 48 uM) or OPTN (up to 60 uM) in two-fold serial dilution; 25 mM Hepes pH 7.8, 250 mM NaCl, 1 mM TCEP, 0.5 mg/ml BSA, 0.05% Tween-20; room temperature; apparent KD, quadratic model
PTEN (Homo sapiens) = PTEN (Homo sapiens) (UniProt P60484); conditions: cited from earlier work
Chain of PTEN (Homo sapiens) (P60484 2-403): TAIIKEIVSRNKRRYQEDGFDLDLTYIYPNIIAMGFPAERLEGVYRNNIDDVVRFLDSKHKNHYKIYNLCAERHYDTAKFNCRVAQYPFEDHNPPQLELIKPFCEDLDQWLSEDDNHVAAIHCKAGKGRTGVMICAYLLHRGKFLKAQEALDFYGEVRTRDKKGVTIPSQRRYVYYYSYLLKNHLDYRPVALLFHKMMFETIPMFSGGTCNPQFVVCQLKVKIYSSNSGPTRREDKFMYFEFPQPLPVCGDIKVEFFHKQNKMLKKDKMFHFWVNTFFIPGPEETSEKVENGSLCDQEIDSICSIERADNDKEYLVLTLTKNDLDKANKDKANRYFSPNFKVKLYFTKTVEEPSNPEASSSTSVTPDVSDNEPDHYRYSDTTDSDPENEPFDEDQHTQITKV

Chain of WWP2 (O00308 whole entry): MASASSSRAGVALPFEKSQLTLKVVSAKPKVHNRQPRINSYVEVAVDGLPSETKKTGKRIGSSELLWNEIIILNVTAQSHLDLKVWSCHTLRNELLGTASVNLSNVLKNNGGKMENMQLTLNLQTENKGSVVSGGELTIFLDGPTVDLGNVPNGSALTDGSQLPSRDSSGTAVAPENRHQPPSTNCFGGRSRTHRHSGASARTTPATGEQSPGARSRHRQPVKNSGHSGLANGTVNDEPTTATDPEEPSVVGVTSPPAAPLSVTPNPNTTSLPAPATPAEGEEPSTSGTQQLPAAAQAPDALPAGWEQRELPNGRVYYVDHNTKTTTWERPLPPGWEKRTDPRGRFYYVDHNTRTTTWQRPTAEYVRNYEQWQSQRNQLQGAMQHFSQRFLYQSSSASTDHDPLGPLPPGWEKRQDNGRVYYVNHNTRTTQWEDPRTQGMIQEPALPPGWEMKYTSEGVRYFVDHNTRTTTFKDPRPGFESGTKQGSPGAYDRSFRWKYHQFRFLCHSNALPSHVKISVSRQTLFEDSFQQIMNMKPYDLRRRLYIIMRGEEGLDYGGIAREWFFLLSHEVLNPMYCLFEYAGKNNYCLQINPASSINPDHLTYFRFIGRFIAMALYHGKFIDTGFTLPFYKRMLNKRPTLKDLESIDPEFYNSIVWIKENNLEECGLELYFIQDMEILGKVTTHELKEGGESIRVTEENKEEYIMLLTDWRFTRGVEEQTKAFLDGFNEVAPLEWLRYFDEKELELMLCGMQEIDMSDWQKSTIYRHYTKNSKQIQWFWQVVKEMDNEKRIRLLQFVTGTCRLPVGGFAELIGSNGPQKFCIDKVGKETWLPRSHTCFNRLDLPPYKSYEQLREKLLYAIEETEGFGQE
Chain of Optineurin (Q96CV9 whole entry): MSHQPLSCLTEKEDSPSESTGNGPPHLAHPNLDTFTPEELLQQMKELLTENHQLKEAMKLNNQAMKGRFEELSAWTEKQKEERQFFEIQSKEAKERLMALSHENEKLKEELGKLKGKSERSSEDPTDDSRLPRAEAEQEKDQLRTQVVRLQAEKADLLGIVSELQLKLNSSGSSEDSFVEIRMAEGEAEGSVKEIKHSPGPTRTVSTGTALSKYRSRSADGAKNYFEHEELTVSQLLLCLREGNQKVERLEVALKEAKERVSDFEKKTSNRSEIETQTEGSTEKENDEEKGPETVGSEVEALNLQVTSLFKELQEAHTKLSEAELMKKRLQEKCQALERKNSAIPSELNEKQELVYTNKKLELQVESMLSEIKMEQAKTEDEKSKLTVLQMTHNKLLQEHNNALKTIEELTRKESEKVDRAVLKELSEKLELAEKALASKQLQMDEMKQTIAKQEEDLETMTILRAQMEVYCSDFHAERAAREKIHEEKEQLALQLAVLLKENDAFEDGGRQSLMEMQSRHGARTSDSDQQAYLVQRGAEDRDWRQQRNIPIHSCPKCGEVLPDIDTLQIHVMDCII

Row | Substance | Kd [1] | Kd (PTEN (Homo sapiens))
1 | Optineurin (from UniProt Q96CV9 1-577) (natural protein) | 39 µM | –
2 | WWP2 (from UniProt O00308) | – | 20 µM

From PMC9034101
